# Source: article PMC12415261 (Proceedings of the National Academy of Sciences of the …, 2025)
# B1: Recombinant human BMP6 (mammalian expressed, glycosylated), P22004 375-513 (ligand)
# chain: SASSRRRQQSRNRSTQSQDVARVSSASDYNSSELKTACRKHELYVSFQDLGWQDWIIAPKGYAANYCDGECSFPLNAHMNATNHAIVQTLVHLMNPEYVPKPCCAPTKLNAISVLYFDDNSNVILKKYRNMVVRACGCH
# modifications: here or on the partner: N-linked glycosylation at Asn454 (prehelix loop)
# B2: Recombinant human BMP6, mammalian expressed (glycosylated) (ligand, UniProt P22004 375-513, looked up)
# chain: B1 chain
# modifications: N-linked glycosylation at Asn454 (prehelical loop)
# notes: mature domain of human BMP6; residues 410 to 513 resolved in the maps (82.3% of mature domain); Dimer held together by a cystine knot; also called glycosylated BMP6; source: bought: RnD (Cat. No. 507-BP), produced from CHO cells
# B3: Deglycosylated BMP6 (BMP6 treated with PNGaseF) (ligand, human, UniProt P22004 375-513, looked up)
# chain: B1 chain
# notes: BMP6, human, mature domain of the precursor, N-linked glycosylation completely removed with PNGaseF; disulfide-linked dimer; Same protein as Dm1 after PNGaseF treatment; also called dgBMP6; PNGaseF treated BMP6; source: bought: RnD (Cat. No. 507-BP), produced from CHO cells; deglycosylated with rapid PNGase F (New England Biolabs), 15 min at 50 C
# B4: Recombinant human BMP6 (mammalian expressed, glycosylated) (ligand, UniProt P22004 375-513, looked up)
# chain: B1 chain
# modifications: N-linked glycosylation at Asn454 (prehelix loop)
# notes: BMP6, human, mature domain of the precursor (residues 410 to 513 resolved in the cryoEM maps, 82.3% of the mature domain); disulfide-linked dimer; also called Bone Morphogenetic Protein 6; source: bought: RnD (Cat. No. 507-BP), produced from CHO cells
# B5: Deglycosylated BMP6 (BMP6 treated with PNGaseF) (ligand, human, UniProt P22004 375-513, looked up)
# chain: B1 chain
# modifications: glycosylation completely removed with PNGaseF
# notes: mature domain of human BMP6; also called dgBMP6; source: bought: RnD (Cat. No. 507-BP), CHO; deglycosylated with rapid PNGase F (15 min at 50 °C)
# B6: Recombinant human BMP6, mammalian expressed (glycosylated), P22004 375-513 (ligand)
# chain: B1 chain
# modifications: here or on the partner: N-linked glycosylation at Asn454 (prehelical loop)
# B7: ActRIIB2-Fc (trap with two ActRIIB extracellular domains) (Fc fusion, human, UniProt Q13705-1 19-133, looked up)
# chain: SGRGEAETRECIYYNANWELERTNQSGLERCEGEQDKRLHCYASWRNSSGTIELVKKGCWLDDFNCYDRQECVATEENPQVYFCCCEGNFCNERFTHLPEAGGPEVTYEPPPTAP
# notes: signal peptide in the construct; ActRIIB (activin receptor type IIB), human, extracellular domain, residues 1 to 133, fused to an IgG1 Fc domain; The limits 1 to 133 are told for the ActRIIB-Fc fusions of this study in general; not shown: Fc (IgG1), C-terminal, kept
# B8: ActRIIB1-Fc (trap with a single ActRIIB extracellular domain) (Fc fusion)
# chain: B7 chain
# modifications: Printed range is 1-133; signal peptide 1-18 is removed. The deposited 9N4K/9MIR chains run to T134 before the linker. Human IgG1 Fc carrier is left out; the second Fc arm carries no receptor. …
# B9: ActRIIB2-Fc (Fc fusion, human, UniProt Q13705-1 19-133, looked up)
# chain: B7 chain
# notes: signal peptide in the construct; extracellular domain of human ActRIIB, residues 1 to 133; also called trap containing two ActRIIB ECDs; source: CHO cells, purified, as previously described (17, 19); not shown: Fc (IgG1), C-terminal, kept
# Columns and labels:
# [1] = molecular target: ActRIIB1-Fc (trap with a single ActRIIB extracellular domain) (human); experiment: SPR; Cytiva T-200; trap captured through its Fc on a CM4 chip with immobilised goat antihuman Fc-specific IgG (about 3,000 RU); ligand flowed, five-step twofold dilution from 5 nM; 10 mM HEPES pH 7.4, 350 mM NaCl, 3.4 mM EDTA, 0.005% P-20; 25 C; 300 s association and dissociation, 30 uL/min; 1:1 fit with mass transport limitation; triplicate
# [2] = molecular target: T1, ALK2-ActRIIB-Fc (human, UniProt Q04771 21-123; Q13705 19-133); experiment: SPR; traps captured by goat antihuman Fc IgG on a CM4 chip; ligand flowed, five-step twofold dilution from 5 nM; HBS-EP+ (10 mM HEPES pH 7.4, 350 mM NaCl, 3.4 mM EDTA, 0.005% P-20), 25 °C; 1:1 fit with mass transport limitation; details: both partners purified
# T1 construct: signal peptide in the construct; extracellular domain of human ActRIIB, residues 1 to 133; also called heterodimeric trap; ActRIIB-ALK2; source: CHO cells, cotransfected, purified (MabSelect SuRe protein A with pH gradient, SEC); not shown: Fc (IgG1), C-terminal, kept; copies: 1 + 1
# [3] = molecular target: T2, ALK3-ActRIIB-Fc (human, UniProt P36894 24-152; Q13705 19-133); experiment: as above; details: both partners purified
# T2 construct: signal peptide in the construct; extracellular domain of human ActRIIB, residues 1 to 133; also called heterodimeric trap; ActRIIB-ALK3; source: CHO cells, cotransfected, purified (MabSelect SuRe protein A, SEC); not shown: Fc (IgG1), C-terminal, kept; copies: 1 + 1
# [4] = molecular target: T3, ALK3-ActRIIB-Fc (heterodimeric trap) (human, UniProt P36894 24-152; Q13705 19-133); experiment: SPR; Cytiva T-200; trap captured through its Fc on a CM4 chip with immobilised goat antihuman Fc-specific IgG (about 3,000 RU); ligand flowed, five-step twofold dilution from 5 nM; 10 mM HEPES pH 7.4, 350 mM NaCl, 3.4 mM EDTA, 0.005% P-20; 25 C; 300 s association and dissociation, 30 uL/min; 1:1 fit with mass transport limitation; triplicate; details: both partners purified
# T3 construct: signal peptide in the construct; ActRIIB, human, extracellular domain, residues 1 to 133, fused to an IgG1 Fc domain; also called ALK3-IIB-Fc; ActRIIB-ALK3; source: SEC Superdex 200 increase; not shown: Fc (IgG1), C-terminal, kept; copies: 1 + 1
# [5] = molecular target: T4, ALK2-ActRIIB-Fc (heterodimeric trap) (human, UniProt Q04771 21-123; Q13705 19-133); experiment: as above; details: both partners purified
# T4 construct: signal peptide in the construct; ActRIIB, human, extracellular domain, residues 1 to 133, fused to an IgG1 Fc domain; also called ALK2-IIB-Fc; ActRIIB-ALK2; source: SEC Superdex 200 increase; not shown: Fc (IgG1), C-terminal, kept; copies: 1 + 1
# [6] = molecular target: ActRIIB1-Fc (human); experiment: SPR; traps captured by goat antihuman Fc IgG on a CM4 chip; ligand flowed, five-step twofold dilution from 5 nM; HBS-EP+ (10 mM HEPES pH 7.4, 350 mM NaCl, 3.4 mM EDTA, 0.005% P-20), 25 °C; 1:1 fit with mass transport limitation
# [7] = molecular target: B4; experiment: SPR; Cytiva T-200; trap captured through its Fc on a CM4 chip with immobilised goat antihuman Fc-specific IgG (about 3,000 RU); ligand flowed, five-step twofold dilution from 5 nM; 10 mM HEPES pH 7.4, 350 mM NaCl, 3.4 mM EDTA, 0.005% P-20; 25 C; 300 s association and dissociation, 30 uL/min; 1:1 fit with mass transport limitation; triplicate; details: both partners purified
# [8] = molecular target: B3; experiment: as above; details: both partners purified
# [9] = molecular target: B2; experiment: SPR; traps captured by goat antihuman Fc IgG on a CM4 chip; ligand flowed, five-step twofold dilution from 5 nM; HBS-EP+ (10 mM HEPES pH 7.4, 350 mM NaCl, 3.4 mM EDTA, 0.005% P-20), 25 °C; 1:1 fit with mass transport limitation; details: both partners purified
# T3 sequence (P36894 24-152, one chain of several): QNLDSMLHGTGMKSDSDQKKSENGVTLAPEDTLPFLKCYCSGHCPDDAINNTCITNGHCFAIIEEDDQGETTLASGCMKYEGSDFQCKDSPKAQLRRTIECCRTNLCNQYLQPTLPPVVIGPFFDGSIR
# T4 sequence (Q04771 21-123, one chain of several): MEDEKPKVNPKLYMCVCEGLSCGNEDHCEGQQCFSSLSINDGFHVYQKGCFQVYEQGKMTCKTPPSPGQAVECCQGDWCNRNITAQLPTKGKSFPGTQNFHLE
# T2 sequence (P36894 24-152, one chain of several): as the sequence (P36894 24-152, one chain of several) above
# T1 sequence (Q04771 21-123, one chain of several): as the sequence (Q04771 21-123, one chain of several) above
binder,measurement,setting,value
B1,koff,[1],0.00234 s⁻¹
same,kon,[1],2.16e+07 M⁻¹ s⁻¹
B2,Kd,[2],0.0366 nM
same,Kd,[3],0.03 nM
B3,koff,[4],0.000432 s⁻¹
same,kon,[4],1.23e+07 M⁻¹ s⁻¹
same,koff,[5],0.00147 s⁻¹
same,kon,[5],1.16e+07 M⁻¹ s⁻¹
B4,koff,[4],0.000423 s⁻¹
same,kon,[4],1.39e+07 M⁻¹ s⁻¹
same,koff,[5],0.000528 s⁻¹
same,kon,[5],1.43e+07 M⁻¹ s⁻¹
B5,Kd,[2],0.127 nM
same,Kd,[3],0.0351 nM
B6,Kd,[6],0.108 nM
B7,koff,[7],0.00119 s⁻¹
same,kon,[7],3.17e+07 M⁻¹ s⁻¹
same,Kd,[8],0.0489 ± 0.006 nM
same,koff,[8],0.00152 s⁻¹
same,kon,[8],3.12e+07 M⁻¹ s⁻¹
B8,Kd,[8],0.11 ± 0.0148 nM
same,koff,[8],0.00186 s⁻¹
same,kon,[8],1.7e+07 M⁻¹ s⁻¹
B9,Kd,[9],0.0421 nM
